Assay [1] has as its target Mouse IL-33-TRAP-Fc (a fusion protein of ST2 and IL-1RAcP with an Fc tag) (mouse). Put plainly: SPR; BIAcore T200, single cycle kinetics, 25°C; mouse ST2-Fc (~200 RU) or mouse TRAP-Fc (~400 RU) captured on a Protein G chip; HpBARI injected in three-fold dilutions; 10 mM NaH2PO4 pH 7.5, 150 mM NaCl, 50 uM EDTA, 0.05% surfactant P20; 1:1 model. For orientation: In SPR one partner is held on a chip, and binding of the other changes the refractive index at the surface.

The target in assay [2] is Mouse ST2-Fc chimera (mouse) (UniProt P14719). The description is as above.
Sequence of Mouse ST2-Fc chimera (mouse) (P14719 27-332, change not shown): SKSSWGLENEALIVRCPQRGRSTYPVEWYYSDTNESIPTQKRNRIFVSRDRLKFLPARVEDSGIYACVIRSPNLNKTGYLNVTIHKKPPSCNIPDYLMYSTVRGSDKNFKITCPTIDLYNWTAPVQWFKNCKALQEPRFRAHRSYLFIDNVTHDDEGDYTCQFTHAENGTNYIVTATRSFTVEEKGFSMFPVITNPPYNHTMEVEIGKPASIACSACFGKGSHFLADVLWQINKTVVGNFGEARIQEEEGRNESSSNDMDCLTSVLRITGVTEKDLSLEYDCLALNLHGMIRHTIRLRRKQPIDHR
The target in assay [3] is Human ST2-Fc chimera (human) (UniProt Q01638).
Sequence of Human ST2-Fc chimera (human) (Q01638 19-328, change not shown): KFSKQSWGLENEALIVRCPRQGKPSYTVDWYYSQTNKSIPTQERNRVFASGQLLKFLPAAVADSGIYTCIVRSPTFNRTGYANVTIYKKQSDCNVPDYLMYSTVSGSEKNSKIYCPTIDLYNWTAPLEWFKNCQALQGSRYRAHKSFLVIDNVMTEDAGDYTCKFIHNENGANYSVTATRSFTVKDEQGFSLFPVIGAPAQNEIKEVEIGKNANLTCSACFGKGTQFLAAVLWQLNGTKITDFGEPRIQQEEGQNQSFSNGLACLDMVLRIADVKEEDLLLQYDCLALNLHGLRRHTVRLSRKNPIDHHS

One may read the Kd as a measure of binding affinity in units of concentration. High values mean lower affinity, low ones higher affinity. What is called koff is a measure of how fast the partners let go of each other. A low value points to slow dissociation. For orientation: kon means the second-order rate constant of association. Higher therefore signals faster complex formation.

“HpBARI expressed with C-terminal tags (natural protein)” had a fold change of the off-rate against the N-terminal tagged construct in assay [1] of 4 fold.
In assay [2], “H. polygyrus Binds Alarmin Receptor and Inhibits (HpBARI), N-terminal tagged (natural protein)” had a Kd of 0.26 nM, a koff of 0.0011 s⁻¹ and a kon of 4e+06 M⁻¹ s⁻¹. In assay [1], this substance yielded a Kd of 0.17 nM, an off-rate (koff) of 0.00065 s⁻¹ and a kon of 3.9e+06 M⁻¹ s⁻¹. In addition, in assay [3], the IC50 of inhibition of IL-33-induced IFN-γ production from human PBMCs (5 ng/ml IL-12 + 0.1 ng/ml oxidation resistant human IL-33, 44 hr, ELISA); blocks human IL-33 with human ST2 is greater than 1000 nM.

Source of the values: publication PMC7234810.
